Data reported in patent US20250270301A1.

Legend:
[1] = target: monomeric P301S 2N4R tau, pHrodo-labelled (human) (UniProt P10636); assay: cell-based or functional assay
[2] = target: aggregated (oligomeric) P301S 2N4R tau, pHrodo-labelled (human) (UniProt P10636); assay: cell-based or functional assay
Chain of aggregated (oligomeric) P301S 2N4R tau, pHrodo-labelled (human) (P10636 other isoform, or with tags, fused parts or gaps P301S P301S): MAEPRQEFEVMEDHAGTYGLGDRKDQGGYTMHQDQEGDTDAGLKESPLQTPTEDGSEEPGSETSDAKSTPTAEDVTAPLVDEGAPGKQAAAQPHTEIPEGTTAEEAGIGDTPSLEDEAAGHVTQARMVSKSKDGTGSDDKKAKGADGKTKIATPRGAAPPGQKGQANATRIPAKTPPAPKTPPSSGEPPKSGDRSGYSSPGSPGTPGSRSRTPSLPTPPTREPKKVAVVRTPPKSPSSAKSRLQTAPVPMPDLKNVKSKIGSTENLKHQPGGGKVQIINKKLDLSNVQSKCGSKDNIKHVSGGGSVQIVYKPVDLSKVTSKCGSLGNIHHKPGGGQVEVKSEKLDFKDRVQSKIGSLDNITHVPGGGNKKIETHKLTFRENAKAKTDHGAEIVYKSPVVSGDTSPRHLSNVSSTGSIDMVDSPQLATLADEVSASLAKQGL

Chain of monomeric P301S 2N4R tau, pHrodo-labelled (human) (P10636 other isoform, or with tags, fused parts or gaps P301S P301S): as above

inhibition of monomeric tau uptake into human iPSC-derived neurons [1]: 6.2%
inhibition of aggregated tau uptake into human iPSC-derived neurons [2]: 14.3%
Substance: isotype control human IgG1 (anti-fluorescein, Absolute Antibody)
